The source of these data is US20240084044A1, “Heteromultivalent Nucleic Acid Scaffolds and Uses Thereof” (George Mason University, priority 2022, published 2024).

This assay has as its target T1, ST2/IL-33 binary complex (Homo sapiens, UniProt O95760+Q01638).
T1 construct: included the extracellular domains, K19-F328 and S21-E359, respectively; the cleaved mature proteins, S112-T270, A117-S269, and R2-S310, respectively; purchased Sino Biologicals ST2 10105-HCCH; IL-33 10368-HNAE; host or cells: ST2: HEK293; IL-33: E. coli
T1 sequence (Q01638 19-328 isoform Q01638-2): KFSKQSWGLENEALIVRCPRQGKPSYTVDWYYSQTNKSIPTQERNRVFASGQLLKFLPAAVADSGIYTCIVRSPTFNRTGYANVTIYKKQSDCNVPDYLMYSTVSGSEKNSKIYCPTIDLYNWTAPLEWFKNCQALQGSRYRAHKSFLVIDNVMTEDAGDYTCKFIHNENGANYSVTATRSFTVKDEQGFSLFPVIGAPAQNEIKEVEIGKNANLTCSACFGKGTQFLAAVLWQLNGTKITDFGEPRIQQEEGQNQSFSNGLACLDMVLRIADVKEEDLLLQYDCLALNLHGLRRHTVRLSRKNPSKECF
T1 sequence (O95760 112-270): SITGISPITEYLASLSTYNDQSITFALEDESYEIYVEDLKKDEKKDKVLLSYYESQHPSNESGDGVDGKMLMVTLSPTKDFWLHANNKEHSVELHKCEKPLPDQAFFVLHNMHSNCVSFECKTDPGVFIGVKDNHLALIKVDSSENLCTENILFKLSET
Put plainly: SPR dissociation constant for the ST2/IL-33 binary complex. In kind it is binding. The text has this:
Recombinant ST2 with truncated FLAG (DDDDK) tag (Cat. #10105-HCCH), His-tagged IL1RAcP (Cat. #10121-H08H), IL-33 (Cat. #10368-HNAE), IL-1β (Cat. #10139-HNAE), and FLAG-tagged SIRT5 (Cat. #19202-H22E) were purchased from Sino Biologicals (Wayne, PA). ST2 and IL1RAcP were expressed in HEK293 cells and included the extracellular domains, K19-F328 and S21-E359, respectively. IL-33, IL-1β, and SIRT5 were expressed in E. coli and included the residue sequence of the cleaved mature proteins, S112-T270, A117-S269, and R2-S310, respectively. Lyophilized ST2, and IL1RAcP were reconstituted in ultrapure (18.5 MΩ) water to a concentration of 0.5 mg/mL (5.6 μM) and stored at −80° C. until use. SIRT5 was reconstituted to 0.2 mg/mL (2.87 μM). To prevent oxidation, IL-33 was reconstituted in 10 mM β-mercaptoethanol (Sigma-Aldrich) to a concentration of 0.1 mg/mL and IL-1β was reconstituted to 0.250 mg/mL. All peptides were purchased from Peptide 2.0 (Chantilly, VA) and designed based on IL1RAcP hotspot residues known to interact with IL-33/ST2 and surrounding residues based on the canonical sequence of IL1RAcP (Uniprot #Q9NPH3). All peptides were modified with acetylated N-terms and amidated C-terms to optimize stability and cyclic peptides cyclized via thioether or disulfide bond. Candidate peptides for the final molecule were also modified with an azido-Lysine and additional N-term alanine or cysteine, to provide the azide group for copper free click chemistry and maintain cyclization. Peptides were stored at −20° C. in lyophilized aliquots of 100 μg or 200 μg and −80° C. after reconstitution in sterile DMSO to a concentration of 10 mM.
SPR experiments were carried out on an OpenSPR instrument (Nicoya). Gold nanoparticle sensor chips (Nicoya) were functionalized by incubation in a solution of ethanol and 10 mM 11-Mercaptoundecanoic acid (MUDA) at RT for a minimum of 48 h, then stored in ethanol at 4° C. until use. Chips were activated with a solution of 200 mM EDC and 50 mM NHS for 3 m at RT. […] Data was analyzed with TraceDrawer software to a 1:1 fit model.

Where “and” joins values, the source holds several entries; their conditions need not be identical. Equal values may be shown once. Bridges are numbered along the chain shown (N, C = ends). Roman numbers before positions name the chains, in order.

“MSTOP: 3WJ DNA scaffold whose three DBCO staple strands carry cyclized azidolysine IL-1RAcP hotspot peptides; decoy for IL-33/ST2 (peptide 1 Ac-CKEYGIQRITC-NH2; peptide 2 Ac-AKVGSPKNAVPPC-NH2; peptide 3 Ac-CKGEVAKAAKVKC-NH2; disulfide I:1-I:11, III:1-III:13; thioether II:1-II:13; not fully specified (some residues); also: three peptides held on a 3-way junction DNA scaffold via DBCO staple strands)”: the “increase in affinity compared to the individual peptides and IL-1RAcP” value (SPR KD comparison) was ~100 fold and 100 fold. Moreover, the Kd (SPR, 1:1 fit, read-out: KD (affinity) to the binary ST2/IL-33 complex) was 195 nM and < 200 nM.
